This data set has as its system Escherichia coli TOP10. Kind of data set: shrunken log2 fold change of peptide-encoding DNA abundance (4.5 h post-induction vs induction); higher = less antimicrobial activity (less host growth inhibition). Conditions: time post-induction: 4.5 h; library: site-saturation at positions 5, 18, 19, 20.
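Note: peptides expressed intracellularly from a pBAD plasmid library in pooled LB shake-flask culture, induced with 0.3% L-arabinose, DNA abundance read by NGS, three biological replicates, DESeq2 with apeglm shrinkage.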

As for RRIRDRPPRLPRPRPRPGQGPRP, the “shrunken log2 fold change” value is 0.257. Take RRIRMRPPRLPRPRPRPRTHPRP: the “shrunken log2 fold change” value came out at 0.28. As for RRIRCRPPRLPRPRPRPKSKPRP, the “shrunken log2 fold change” value is -0.338. RRIRLRPPRLPRPRPRPTEWPRP: the “shrunken log2 fold change” value is -0.0906. On to RRIRSRPPRLPRPRPRPCNSPRP, for which the “shrunken log2 fold change” value was -0.0626. With RRIRPRPPRLPRPRPRPFTKPRP, the “shrunken log2 fold change” value is -0.148.

Turning to RRIRCRPPRLPRPRPRPDLMPRP, the “shrunken log2 fold change” value is -0.424. As to RRIRARPPRLPRPRPRPPEQPRP, the “shrunken log2 fold change” value came to 0.941. Regarding RRIRLRPPRLPRPRPRPQVSPRP, the “shrunken log2 fold change” value was determined as 0.0548. The result for RRIRGRPPRLPRPRPRPILKPRP reads 0.316; that for RRIRLRPPRLPRPRPRPRMMPRP, 0.189. The result for RRIRSRPPRLPRPRPRPRLCPRP reads 0.28; that for RRIRARPPRLPRPRPRPTECPRP, 0.0171. Consider RRIRPRPPRLPRPRPRPQTNPRP, for which the “shrunken log2 fold change” value is -0.0828. RRIRLRPPRLPRPRPRPEHLPRP: the “shrunken log2 fold change” value is -0.118. Regarding RRIRGRPPRLPRPRPRPMIRPRP, the “shrunken log2 fold change” value amounted to 0.147. Consider RRIRSRPPRLPRPRPRPWCMPRP, for which the “shrunken log2 fold change” value was -0.781.

In the case of RRIRTRPPRLPRPRPRPPQVPRP, the “shrunken log2 fold change” value was -0.0388.

Regarding RRIRYRPPRLPRPRPRPGIYPRP, the “shrunken log2 fold change” value was -0.288.

For the sequence RRIRMRPPRLPRPRPRPFADPRP, the “shrunken log2 fold change” value came out at 2.11. With RRIRPRPPRLPRPRPRPKMNPRP, the “shrunken log2 fold change” value was -0.273. The result for RRIRTRPPRLPRPRPRPKNLPRP reads -0.143; that for RRIRMRPPRLPRPRPRPYHIPRP, -0.69; that for RRIRERPPRLPRPRPRPSIDPRP, -0.0545. Take RRIRMRPPRLPRPRPRPLYLPRP: the “shrunken log2 fold change” value is -0.327.

Consider RRIRDRPPRLPRPRPRPGQVPRP, for which the “shrunken log2 fold change” value came to 0.203.

Take RRIRWRPPRLPRPRPRPDYFPRP: the “shrunken log2 fold change” value was -0.0991.

Regarding RRIRWRPPRLPRPRPRPVINPRP, the “shrunken log2 fold change” value was -0.0708. In the case of RRIRLRPPRLPRPRPRPTVLPRP, the “shrunken log2 fold change” value was -0.126. The result for RRIRIRPPRLPRPRPRPIVYPRP reads -0.383; that for RRIRSRPPRLPRPRPRPACWPRP, 0.523. Turning to RRIRTRPPRLPRPRPRPIVQPRP, the “shrunken log2 fold change” value worked out at 0.0444. In the case of RRIRRRPPRLPRPRPRPAKLPRP, the “shrunken log2 fold change” value is 0.0542. RRIRERPPRLPRPRPRPAWCPRP: the “shrunken log2 fold change” value is 0.238.

Take RRIRERPPRLPRPRPRPNAIPRP: the “shrunken log2 fold change” value stood at 0.185.

For RRIRHRPPRLPRPRPRPWCMPRP, the “shrunken log2 fold change” value is -0.0194. On to RRIRRRPPRLPRPRPRPADQPRP, for which the “shrunken log2 fold change” value stood at 0.0865.

Take RRIRMRPPRLPRPRPRPPHTPRP: the “shrunken log2 fold change” value was found to be 0.824. Regarding RRIRSRPPRLPRPRPRPMARPRP, the “shrunken log2 fold change” value worked out at 0.101. As for RRIRYRPPRLPRPRPRPFLYPRP, the “shrunken log2 fold change” value was -0.881. For the sequence RRIRLRPPRLPRPRPRPATTPRP, the “shrunken log2 fold change” value was determined as 0.467.

For RRIRCRPPRLPRPRPRPAIWPRP, the “shrunken log2 fold change” value was determined as 0.346. As to RRIRCRPPRLPRPRPRPIWRPRP, the “shrunken log2 fold change” value came to 0.285. The result for RRIRCRPPRLPRPRPRPIKTPRP reads -0.0653. RRIRPRPPRLPRPRPRPFVGPRP: the “shrunken log2 fold change” value was -0.297.

Regarding RRIRARPPRLPRPRPRPHTQPRP, the “shrunken log2 fold change” value was -0.0761. For the sequence RRIRSRPPRLPRPRPRPHFAPRP, the “shrunken log2 fold change” value worked out at 0.0285. On to RRIRNRPPRLPRPRPRPTSVPRP, for which the “shrunken log2 fold change” value amounted to 0.184. Take RRIRFRPPRLPRPRPRPAGIPRP: the “shrunken log2 fold change” value is -0.161.

As to RRIRDRPPRLPRPRPRPVVIPRP, the “shrunken log2 fold change” value was 2.82. For the sequence RRIRPRPPRLPRPRPRPWQEPRP, the “shrunken log2 fold change” value amounted to 0.00579. Turning to RRIRMRPPRLPRPRPRPIKTPRP, the “shrunken log2 fold change” value was -0.0802. For RRIRMRPPRLPRPRPRPGITPRP, the “shrunken log2 fold change” value was 0.133. RRIRLRPPRLPRPRPRPYWNPRP: the “shrunken log2 fold change” value is -1.03. Take RRIRWRPPRLPRPRPRPCDSPRP: the “shrunken log2 fold change” value is -0.00192. Consider RRIRYRPPRLPRPRPRPFYDPRP, for which the “shrunken log2 fold change” value was -0.708. For RRIRPRPPRLPRPRPRPECEPRP, the “shrunken log2 fold change” value amounted to 0.291. For the sequence RRIRPRPPRLPRPRPRPEARPRP, the “shrunken log2 fold change” value was determined as 0.374. Take RRIRTRPPRLPRPRPRPKSQPRP: the “shrunken log2 fold change” value is -0.285. The same measure for RRIRARPPRLPRPRPRPWNAPRP: -0.124; for RRIRIRPPRLPRPRPRPPERPRP: 0.324; for RRIRARPPRLPRPRPRPENDPRP: 0.085. With RRIRCRPPRLPRPRPRPFFYPRP, the “shrunken log2 fold change” value was -0.32.

As for RRIRRRPPRLPRPRPRPFNTPRP, the “shrunken log2 fold change” value was -0.119. The result for RRIRRRPPRLPRPRPRPQKDPRP reads -0.151. Take RRIRGRPPRLPRPRPRPRDMPRP: the “shrunken log2 fold change” value is 0.339. The result for RRIRYRPPRLPRPRPRPGWPPRP reads 0.0827. RRIRYRPPRLPRPRPRPRGKPRP: the “shrunken log2 fold change” value is 0.158. Consider RRIRVRPPRLPRPRPRPVKSPRP, for which the “shrunken log2 fold change” value is -0.0272. As to RRIRIRPPRLPRPRPRPVAEPRP, the “shrunken log2 fold change” value is 0.243. For RRIRVRPPRLPRPRPRPVNTPRP, the “shrunken log2 fold change” value is -0.236. With RRIRQRPPRLPRPRPRPLGAPRP, the “shrunken log2 fold change” value amounted to 0.285.

For RRIRFRPPRLPRPRPRPYKNPRP, the “shrunken log2 fold change” value was -0.957. The result for RRIRSRPPRLPRPRPRPEWQPRP reads 0.254. For the sequence RRIRLRPPRLPRPRPRPKAIPRP, the “shrunken log2 fold change” value is 0.0195. Regarding RRIRDRPPRLPRPRPRPMVLPRP, the “shrunken log2 fold change” value stood at 0.359. On to RRIRARPPRLPRPRPRPIGQPRP, for which the “shrunken log2 fold change” value was 0.34. For the sequence RRIRKRPPRLPRPRPRPQNDPRP, the “shrunken log2 fold change” value is -0.0578. For RRIRWRPPRLPRPRPRPPIIPRP, the “shrunken log2 fold change” value is -0.151. Take RRIRFRPPRLPRPRPRPIYNPRP: the “shrunken log2 fold change” value is -0.624. Turning to RRIRRRPPRLPRPRPRPQADPRP, the “shrunken log2 fold change” value came out at 0.312. In the case of RRIRIRPPRLPRPRPRPTAHPRP, the “shrunken log2 fold change” value was -0.313.

As to RRIRKRPPRLPRPRPRPIGFPRP, the “shrunken log2 fold change” value was -0.00176. For the sequence RRIRYRPPRLPRPRPRPRVLPRP, the “shrunken log2 fold change” value was -0.322. The same measure for RRIRTRPPRLPRPRPRPGDDPRP: 0.24; for RRIRMRPPRLPRPRPRPVGKPRP: 0.216; for RRIRMRPPRLPRPRPRPQLQPRP: 0.165. RRIRFRPPRLPRPRPRPTRMPRP: the “shrunken log2 fold change” value was determined as 0.762. The result for RRIRMRPPRLPRPRPRPASLPRP reads -0.0145; that for RRIRERPPRLPRPRPRPCLIPRP, -0.0716. Regarding RRIRPRPPRLPRPRPRPQRIPRP, the “shrunken log2 fold change” value was 0.0114.

For the origin of these results see the supplement of paper PMC9112550, “Optimization of the antimicrobial peptide Bac7 by deep mutational scanning” (BMC Biology, 2022).
